B1: TPR t1 (parent)
chain: GACCAAUCUGCCCUCAGAGCUCGAGAACAUCUUCGGAUGCAGAGGAGGCAGGCUUCGGUGGCGCGAUAGCGCCAACGUCCUCAACCUCCAAUGCAUCCCACCACAUGAUGAUGCCUGAAGAGCCUUGGUUUUUUG

Variants of B1 are the subject of this data set. The experiment in a line: polymerase ribozyme fitness, log enrichment relative to wild type (log ratio); higher = more active; in vitro selection for triplet polymerase activity. In outline: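 Libraries of mutants in each subunit of a heterodimeric triplet polymerase ribozyme were generated by PCR and transcribed. In triplicate, each went through one in vitro selection round: annealing with biotinylated primer, partner subunit and triplets; frozen incubation at −7 °C; gel excision of extended constructs; streptavidin-bead capture; RT-PCR. Fitness, taken from Illumina sequencing of input and output libraries, is the logarithm of a genotype's enrichment over wild-type enrichment, averaged across replicates with inverse-variance weights. The logarithm is base 2, and genotypes needed ≥10 input reads and ≥1 read per output to be kept.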
On to G51C G69U, for which the “polymerase ribozyme fitness (log ratio)” value is -2.95.
Consider A50U G71C G117A, for which the “polymerase ribozyme fitness (log ratio)” value was -3.1.
With G51A G69U C88U G93A U109G U133C the figure was -4.55; with G51U C101U G120U, -4.49.
With G51U G58C G113C the figure was -5.43; with G51A G77C A95C, -4.86; with G51U G61U C80A G127U, -1.14.
With G52A C56U C72U G113C U125A the figure was -2.88.
As for A50U G52U U87G, the “polymerase ribozyme fitness (log ratio)” value is -2.24.
With A50U G122A the figure was -1.23; with G52A G93U G120A, -0.0896; with G52C U55C, -0.101.
With G52A C104U G113C the figure was -2.55.
The result for G52A U92A C98U A119U C124A reads -3.81; that for G52A C56A, -0.146; that for G52A C85G, -1.03.
As for A50U C115A U133C, the “polymerase ribozyme fitness (log ratio)” value is 0.332.
With G52U A105G A121C the figure was -2.06; with A50U U59A G60C C80G C88U, -2.26; with G52A C72G A95C, -2.
The result for A50U G69A C101A U130G reads -6.9; that for G52C G61A C72U, -0.0205; that for G52C C56A, -0.559.
With G52C C56U the figure was -0.823; with G52A U133A, -0.415.
In the case of G51A C115G, the “polymerase ribozyme fitness (log ratio)” value was -4.23.
With G52U C56A the figure was -1.92; with G51A C56U, -0.934.
With G51A C56G the figure was -2.03; with G51C U130A, -3.62; with G52A G69C, -1.72.
As for G52A G69A, the “polymerase ribozyme fitness (log ratio)” value is -3.61.
With G52C C56A G57A C89U A91C C94U the figure was -3.35; with G52C C114U, -3.57.
The result for G51A C86U C94G G120C reads -6.29; that for G52A C62U C79G, -0.394; that for A50U U55G G58A, -5.41.
As to G51U G60U C79G, the “polymerase ribozyme fitness (log ratio)” value is -1.64.
Turning to A50U U106G, the “polymerase ribozyme fitness (log ratio)” value was -2.78.
With G52C C64U C123U the figure was -0.169; with A50U G60C C123A G127C U132C, -0.878.
Consider G51U C79G U87G, for which the “polymerase ribozyme fitness (log ratio)” value was -1.09.
In the case of G51U C79G C94A C124A, the “polymerase ribozyme fitness (log ratio)” value is -1.56.
Turning to G51C C53G C94G, the “polymerase ribozyme fitness (log ratio)” value was -5.44.
With G51U U109A G128U the figure was -5.92.
The result for G52U A121C G127A reads -0.484.
Turning to A50U U54A G63C U112A, the “polymerase ribozyme fitness (log ratio)” value was -2.51.
With G51A A74G U131A the figure was -1.77; with G51A A95U, -3; with G51U A84C C88A A121C, -1.74.
As to G51U C73A U106A C124A U126A U129A U131A, the “polymerase ribozyme fitness (log ratio)” value is -2.8.
The result for G51C A91C U112A U131C reads -6.14; that for G51A G69C U112A, -5.2.
Turning to A50U C123U, the “polymerase ribozyme fitness (log ratio)” value was determined as 0.00244.
With A50U G110A the figure was -2.67; with A50U G110U, -4.06; with G52A C89G U129G, -2.09.
The result for G51C G52A U81C reads -5.02; that for G52C U54G C82G, -1.46.
With G52A C56U U59G C114U C124A G135C the figure was -0.522; with G52A G77U G93A G122U, -2.45.
For the variant A50U U92A, the “polymerase ribozyme fitness (log ratio)” value was -5.22.
The result for A50U U92G reads -3.4.
The result for G51U G71A reads -5.06; that for G52C C56A C102U U133A, -2.78.
Take G51C G61A C94U C97U: the “polymerase ribozyme fitness (log ratio)” value is -3.52.
With G51C C101U the figure was -3.94.
The result for G52A U126C reads -1.17.
The result for G51A G57U U81C C101U reads -2.52; that for G52C G71U, -0.867.
In the case of A50U G63A, the “polymerase ribozyme fitness (log ratio)” value was -1.47.
As to G51U C53U U112A A119G, the “polymerase ribozyme fitness (log ratio)” value is -2.63.
The result for G52C G69A reads -3.55; that for G52C G69U, -0.241.
With A50U U109A the figure was -5.95.
With G52A G122A the figure was -0.494; with G52A C70U C102U, -2.87.
For the variant G51C U112C, the “polymerase ribozyme fitness (log ratio)” value was -1.34.
In the case of G51A G60C U92C U130A, the “polymerase ribozyme fitness (log ratio)” value was -6.22.
With G51C G71A C82G C85A the figure was -4.52; with G52A G57A U129A, -2.51.
The result for G51A C89G reads -4.83; that for G51A G57U, -1.5.
G52C C94A: the “polymerase ribozyme fitness (log ratio)” value is -0.653.
In the case of G52A C85G C124A, the “polymerase ribozyme fitness (log ratio)” value is 0.15.
The result for G52C G63C C85U C104U reads -3.03.
G52A C102A: the “polymerase ribozyme fitness (log ratio)” value was -1.79.
With G52A C53G U59A A119U the figure was -4.71; with G51U G60A C123U, -1.47; with A50U C115U, -2.37.
The result for G52A C53U reads -0.621; that for G52A C53A, -0.436; that for G51U A68C A91C G110C, -7.47.
With G52A U54A G69U G77U C80G A83C A119U the figure was -3.11; with G52C C101A, -2.34; with A50U G120A, -0.296.
Regarding G52U A121G, the “polymerase ribozyme fitness (log ratio)” value was 1.06.
For G52C U59C G60U A66G, the “polymerase ribozyme fitness (log ratio)” value was -5.6.
With G51C G127U the figure was -5.2; with G52A G77U G117U, -4.34; with G52C G60A U81A A83U, -5.15.
The result for G51C G60A reads -3.46.
Regarding G52C C53A C97U C101U, the “polymerase ribozyme fitness (log ratio)” value is -1.86.
On to G51U G61C G117C U131G, for which the “polymerase ribozyme fitness (log ratio)” value was -7.34.
With G52A C56U G93A the figure was -0.382; with G51A C73G, -0.931.
The result for G51A G63U C80A U96G reads -5.76; that for G52U C53U, -1.04; that for G52A C94A, -1.72.
As to G52C G69C G117C, the “polymerase ribozyme fitness (log ratio)” value is -6.05.
With G51C G57C C73A G77U U78G the figure was -3.02; with A50U U125G U129C, -2.41.
With G52C A83C A118G U131A the figure was -0.732.
As to G51U C56A C62U U92A C101U, the “polymerase ribozyme fitness (log ratio)” value is -6.34.
The result for G51U C62U reads -3.78; that for G51C C80G, -1.85.
The result for G52A G57C C72U U116A U129C reads -4.37.
With G52A C73G C85A the figure was -1.93; with A50U G51U G69A C97U U109A, -6.25.
Consider G51A G71C U112C, for which the “polymerase ribozyme fitness (log ratio)” value is -2.08.
With G51U C115U the figure was -4.89; with G52A C62A U87A, -3.07.
With G52A U92G the figure was -2.95; with A50U C124G, -0.185; with A50U G69C, -1.7.
With G51U G93C the figure was -4.26.
Regarding A50U G63A U106C, the “polymerase ribozyme fitness (log ratio)” value was -3.09.
The result for G52C C123G U133G reads 0.949; that for A50U G65A U78G G120A U126A U129G U130A, -7.26; that for G52A G69C C104U G113C, -4.79.
For G51U A74C A121C, the “polymerase ribozyme fitness (log ratio)” value was -0.422.
A50U G57C A119U: the “polymerase ribozyme fitness (log ratio)” value is -1.85.
With G51A A90G G113C the figure was -5.54.
The result for G51U G61U reads -3.14; that for G52A C123A, -0.148.
The result for G52A A84U U131G reads -0.974.
As to A50U G128A, the “polymerase ribozyme fitness (log ratio)” value is -3.35.
The result for G51U G52A C79A reads -5.44; that for G52A C114G, -3.02; that for G51A U78A C88G A121U, -1.45.
The result for G51A U78C reads -2.47; that for G52A G58U C73G, -0.432; that for G51U C72U U106A, -3.68.
With G51A C53A G61A C73U the figure was -2.68.
As to G52A C73A, the “polymerase ribozyme fitness (log ratio)” value was -0.179.
With G52A C73G, the “polymerase ribozyme fitness (log ratio)” value is -2.63.
With G52A G63U U129A the figure was -3.94; with G51A C64A A84C G117C, -6.48.
The result for G52A G57A G113A reads -0.88; that for G51C G113C, -5.71.
The result for G52C G63C U87C reads -0.694.
Turning to G52A G61A, the “polymerase ribozyme fitness (log ratio)” value is -0.531.
The result for G51A U130A reads -3.19.
The result for G51U G57A G65U A121U reads -7.73; that for G51U G60A, -2.28; that for G51U G60U C73G, -2.23.
The result for G51A A83G G120U C123G G128U reads -2.51; that for A50U G60A C70U G93A, -3.24.
As for G51A G61U G128C, the “polymerase ribozyme fitness (log ratio)” value is -5.
With G51C G60A U112G G117C the figure was -7.03; with G51U G69U U87G, -0.427; with G51A G60A C80A A95G A111G, -4.57.
Take A50U G93C: the “polymerase ribozyme fitness (log ratio)” value is -1.95.
The result for G52U C56A C102A reads -2.74.
For G51A G71A G93A U129C, the “polymerase ribozyme fitness (log ratio)” value is -5.9.
G51C G61A G120A U132A: the “polymerase ribozyme fitness (log ratio)” value is -2.03.
With G52A U78A C115A the figure was 0.0466.

(Values after the RNAGym collection of RNA variant scans (doi:10.1073/pnas.2313332121).)
